In publication PMC11316107, “PPTC7 antagonizes mitophagy by promoting BNIP3 and NIX degradation via SCF^FBXL4” (EMBO Reports, 2024):

Columns and labels:
Conditions in all cases: both partners purified
[1] = target: T1, recombinant PPTC7 (31-304) wild type (human, UniProt Q8NI37 31-304); test: ITC; 500 µM peptide titrated into 25 µM PPTC7; 25 °C; 50 mM HEPES pH 7.5, 300 mM NaCl, 10 mM MnCl2, 2 mM β-mercaptoethanol; MicroCal PEAQ-ITC
T1 construct: PPTC7, human, residues 31-304; pGEX-6P-2 vector; also called PPTC7 wild-type; GST-PPTC7(31-304); source: E. coli BL21(DE3), purified (glutathione-sepharose, PreScission cleavage, Superdex 75)
T1 sequence (looked up): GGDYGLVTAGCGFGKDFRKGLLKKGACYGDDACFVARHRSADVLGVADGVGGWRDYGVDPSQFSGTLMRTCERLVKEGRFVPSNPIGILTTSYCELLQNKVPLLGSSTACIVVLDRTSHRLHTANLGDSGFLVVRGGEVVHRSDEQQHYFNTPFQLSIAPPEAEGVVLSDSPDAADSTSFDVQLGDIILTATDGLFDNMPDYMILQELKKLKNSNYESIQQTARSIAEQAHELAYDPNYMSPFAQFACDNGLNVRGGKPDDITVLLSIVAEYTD

PPTC7 (31-304) D290N = target: T2, PPTC7 (31-304) D290N (human, UniProt Q8NI37 31-304, D290N); test: ITC; 500 µM peptide (syringe) titrated into 25 µM PPTC7 (cell); 25 °C; 50 mM HEPES pH 7.5, 300 mM NaCl, 10 mM MnCl2, 2 mM β-mercaptoethanol; MicroCal PEAQ-ITC
T2 construct: human PPTC7, residues 31-304, from pGEX-6P-2 GST-PPTC7(31-304)(D290N); The purification is described for GST-PPTC7 (31-304); also called PPTC7 D290N; PPTC7-D290N; source: E. coli BL21(DE3), purified (glutathione-sepharose, PreScission cleavage, Superdex 75 gel filtration); not shown: GST, N-terminal, cleaved
T2 sequence (looked up): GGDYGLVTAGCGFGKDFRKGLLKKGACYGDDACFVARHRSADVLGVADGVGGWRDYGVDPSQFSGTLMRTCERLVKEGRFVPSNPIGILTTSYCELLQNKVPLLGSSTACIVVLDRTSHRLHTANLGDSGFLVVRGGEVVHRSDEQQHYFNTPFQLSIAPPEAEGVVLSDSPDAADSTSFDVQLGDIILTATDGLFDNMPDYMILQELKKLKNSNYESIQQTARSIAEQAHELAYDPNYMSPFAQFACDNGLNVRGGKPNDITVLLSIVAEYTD

[2] = target: T3, PPTC7 (31-304), wild type (human, UniProt Q8NI37 31-304); test: as above
T3 construct: human PPTC7, residues 31-304, from pGEX-6P-2 GST-PPTC7(31-304); GST removed with PreScission protease; assayed with 10 mM MnCl2 in the buffer; also called PPTC7 + Mn2+; Protein Phosphatase Targeting COQ7; source: E. coli BL21(DE3), purified (glutathione-sepharose, PreScission cleavage, Superdex 75 gel filtration); not shown: GST, N-terminal, cleaved
T3 sequence (looked up): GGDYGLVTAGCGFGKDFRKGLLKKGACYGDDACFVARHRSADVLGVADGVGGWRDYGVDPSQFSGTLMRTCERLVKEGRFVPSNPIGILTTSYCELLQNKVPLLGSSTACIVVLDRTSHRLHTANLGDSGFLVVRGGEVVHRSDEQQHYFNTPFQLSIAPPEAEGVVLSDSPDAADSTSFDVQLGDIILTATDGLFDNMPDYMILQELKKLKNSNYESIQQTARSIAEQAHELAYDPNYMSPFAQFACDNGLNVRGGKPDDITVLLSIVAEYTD

Row | Binder | Kd [1] [µM] | Kd (PPTC7 (31-304) D290N) [µM] | stoichiometry N (PPTC7 (31-304) D290N) | stoichiometry N [2]
1 | BNIP3(N113-R139) peptide (human BNIP3, residues N113-R139 (Q12983, 194 aa); also called BNIP3 peptide; source: synthetic peptide) peptide: not shown | – | – | – | 1
2 | BNIP3 peptide (N113-R139) (also called BNIP3(N113-R139); source: synthetic peptide) peptide: not shown | 20.1 | – | – | –

Second part, the binder after the results:

Row | Kd [1] [µM] | Kd (PPTC7 (31-304) D290N) [µM] | stoichiometry N (PPTC7 (31-304) D290N) | stoichiometry N [2] | Binder
3 | 37.5 | – | – | – | NIX peptide (A138-R163) (also called BNIP3L(A138-R163); source: synthetic peptide) peptide: not shown
4 | – | 35.9 ± 1.09 | 1 | 1 | BNIP3L(A138-R163) peptide (human NIX (BNIP3L), residues A138-R163; also called NIX; NIX peptide; source: synthetic peptide) peptide: not shown
